Test results taken from PMC2650471, “The structure of NMB1585, a MarR-family regulator from Neisseria meningitidis” (Acta Crystallographica Section F: Structural Biology and …, 2009).

Target: the molecule itself
Experiment: crystal structure; selenomethionine-labelled NMB1585, 9.7 mg/ml in 20 mM Tris pH 7.5, 200 mM NaCl, 1 mM TCEP; crystals from 0.1 M HEPES pH 7.5, 25% PEG 3350, 0.2 M ammonium chloride; space group P2(1), two subunits per asymmetric unit; 2.1 Å

B1: NMB1585, MarR-family transcription factor from Neisseria meningitidis (natural protein)
chain: MNQLDQLGTRINLICNVFDKWIGQQDLNYNLFAVLYTLATEGSRTQKHIGEKWSLPKQTVSGVCKTLAGQGLIEWQEGEQDRRKRLLSLTETGKAYAAPLTESAQEFSDKVFATFGDKRTTRLFADLDALAEVMEKTISENKK
modifications: selenomethionine-labelled (selenomethionine in place of methionine)
notes: NMB1585, MarR-family regulator, Neisseria meningitidis strain MC58; amplified from genomic DNA with primers that run from the ATG start codon to the stop codon; cloned into pDEST17 with an N-terminal His tag and a 3C protease cleavage site; also called meningococcal MarR; source: tag removed with 3C protease; not shown: His tag, N-terminal, cleaved
  stoichiometry N: 2
